Measurements taken from patent US12564623B2, “Methods and compositions for treating cancer” (The University of Chicago, priority 2017, dated 2026).

Legend:
MDA-MB-231 cells = experiment: ELANE inactivation by PMSF or A1AT and killing assay; assay type: cell-based, human; conditions: PMSF 100 nM or A1AT 42 nM for 30 mins; 24 hrs
Experimental: (FIG. 5A) Purified native ELANE or PMN media was treated with PMSF (100 nM) or alpha-1-anti-trypsin (A1AT; 42 nM) for 30 mins and loss of ELANE catalytic activity was confirmed by a chromogenic substrate assay. Killing assays were performed by treating MDA-MB-231 cells for 24 hrs treatment and assessed by Calcein AM staining. (FIG. 5B) ELANE activity in PMN media was measured by a chromogenic substrate activity assay, and PMN killing was measured by Calcein AM staining on MDA-MB-231 cells exposed to PMN media for 4h.

E0771 cancer cells = experiment: ELANE with anti-PD-L1 in a mouse model of TNBC; assay type: in vivo, C57BL/6 mice; conditions: ELANE 11.6 μg + anti-PD-L1 100 μg
Experimental: E0771 cancer cells were injected into C57BL/6 mice. Once tumors reached ˜100 mm^3, mice were randomly separated into four groups: ELANE (11.6 μg), PMSF-inactivated ELANE (PMSF-ELANE), anti-PD-L1 (BioXCell, 10F.9G2, 100 μg), and ELANE (11.6 μg)+anti-PD-L1 (100 μg). n=8-9 mice/group. Anti-PD-L1 monoclonal antibody was injected intaperitoneally on days 10, 14, 18, and 22 after tumor inoculation. ELANE or PMSF-ELANE were delivered intra-tumorally when tumors reached ˜[…] (˜ 14 days post cancer cell injection). (FIG. 20A) Tumor volume was measured by calipers. (FIG. 20B) Kaplan-Meier curve was plotted and the logrank test (Mentel-Cox method) was used for mouse survival analysis. End point of survival is defined as tumor volume >1000 mm^3. *, p<0.05, Student's t-test.

[1] = tested on: E0771, B16F10, or LLC1 cancer cells; experiment: Tumor growth after intratumoral delivery, syngeneic models; assay type: in vivo, C57BL/6 mice; conditions: 11.6 μg intratumorally once/day for 5 days
Experimental: ELANE activity is required for its anti-tumor function in vivo. (FIG. 14A) Catalytic activity of ELANE or ELANE that had been inactivated by treatment with 100 nM PMSF (PMSF-ELANE) was determined by a chromogenic substrate. (FIG. 14B) E0771, B16F10, or LLC1 cancer cells were injected into C57BL/6 mice. Once tumors reached ˜100 mm^3, human serum albumin (HSA, 11.6 μg), ELANE (11.6 μg), or PMSF-ELANE (11.6 μg) were delivered intratumorally once/day for 5 days. Tumor volume was assessed by calipers.

Cancer cells [2] = experiment: Killing program signaling in cancer cells (ERK, NFKB, JNK, ROS, H2AX, CASP3, PARP); assay type: cell-based, Human and mouse; conditions: 50 nM
Experimental: (FIG. 10A) Cancer cells were treated with ELANE (50 nM) for 4 hrs, and phosphorylated and total ERK, NFKB, and JNK were quantified by western blotting. Immunoblots for E0771 cancer cells are shown as an example. (FIG. 10B) Cancer cells were treated with various doses of ELANE for 1 hr and mitochondrial ROS was measured by flow cytometry using CM-H2DCFDA dye. (FIG. 10C) Cancer cells were treated with ELANE (50 nM) and DNA damage was assessed by immunoblotting for phospho-(γH2AX) and total H2AX. Immunoblots for A549 cancer cells are shown as an example. (FIG. 10D) Cells were treated with ELANE (50 nM) for 8 hrs, and full length and cleaved CASP3 (c-CASP3) and cleaved PARP (c-PARP) were quantified by immunoblotting. Immunoblots for LLC1 cancer cells are shown as an example. *, p<0.05, Student's t-test.
ELANE induces a robust killing program in a variety of cancer cells. Human and mouse cancer cells were treated with ELANE and signaling pathways associated with cancer cell death were assessed. Cells were treated with ELANE (50 nM) for 4 hrs, and phosphorylated and total ERK, NFKB, and JNK were quantified by western blotting. Cells were treated with various doses of ELANE for 1 hr and mitochondrial ROS was measured by flow cytometry using CM-H2DCFDA dye. Cells were treated with ELANE (50 nM) and DNA damage was assessed by western blot for phospho-(γH2AX) and total H2AX. […]

Cancer cells [3] = experiment: ELANE uptake and killing with endocytosis inhibitor Dynasore; assay type: cell-based; conditions: ELANE 30 nM, Dynasore 80 μM, 6 hours
Experimental: (FIG. 9A) Cancer cells were treated with ELANE (100 nM) in the presence or absence of a broad endocytosis inhibitor Dynasore (80 μM) for 30 mins. ELANE catalytic activity in cell lysates was assessed by a chromogenic substrate assay. (FIG. 9B) Cancer cells were treated with ELANE (30 nM) in the presence or absence of Dynasore (80 μM) for 6 hours. Cell viability was examined by Calcein AM staining. *, p<0.05, Student's t-test.

[4] = tested on: E0771, B16F10, or LLC1 cancer cells; experiment: Tumoral immune cell analysis by flow cytometry; assay type: in vivo, C57BL/6 mice; conditions: 11.6 μg intratumorally once/day for 5 days, day 6
Experimental: E0771, B16F10, or LLC1 cancer cells were injected into C57BL/6 mice. Once tumors reached ˜100 mm^3, ELANE (11.6 μg) or PMSF-ELANE (11.6 μg) were delivered intratumorally once/day for 5 days. Tumors were isolated on day 6 and digested for immune cell analysis by flow cytometry. CD45+ cells are the total immune cells; macrophages (Mac) are defined as CD45+CD11b+CD11c^lowMHCII^low, neutrophils (Neu) are defined as CD45+CD11b+Ly6G+, dendritic cells (DC) are defined as CD45+CD11b+CD11c^highMHCII^high, B cells (b) are defined as CD45+B220+, NK cells (NK) are defined as CD45+NK1.1+CD16+, CD4+ T cells (CD4T) are defined as CD3+CD4+CD8−, CD8+ T cells (CD8T) are defined as CD3+CD8+CD4−, CD8 effector T cells (CD8Teff) are defined as CD3+CD8+CD4−CD62L−CD44+. *, p<0.05, Student's t-test. (FIG. 17)

B1: neutrophil elastase (protein, listed as Homo sapiens)
chain: MTLGRRLACLFLACVLPALLLGGTALASEIVGGRRARPHAWPFMVSLQLRGGHFCGATLIAPNFVMSAAHCVANVNVRAVRVVLGAHNLSRREPTRQVFAVQRIFENGYDPVNLLNDIVILQLNGSATINANVQVAQLPAQGRRLGNGVQCLAMGWGLLGRNRGIASVLQELNVTVVTSLCRRSNVCTLVRGRQAGVCFGDSGSPLVCNGLIHGIASFVRGGCASGLYPDAFAPVAQFVNWIDSIIQRSEDNPCPHPRDPDPASRTH
notes: purified native ELANE
dependence of cancer cell killing on catalytic activity (MDA-MB-231 cells): catalytic activity is required for its selective cancer cell killing
efficacy with anti-PD-L1 (E0771 cancer cells): enables anti-PDL1 efficacy
tumor growth [1]: slows tumor growth
killing program in cancer cells (Cancer cells [2]): induces a robust killing program in cancer cells
dependence of killing on uptake (Cancer cells [3]): internalization is required to kill cancer cells
tumoral immune cells [4]: increases tumoral immune cells
